Experiment: soluble on expression in E. coli; label from the status in PepcDB or PDB records

Row | Sequence | soluble on expression in E. coli
1 | MKTSEWIDISQPLNNNIATWPGDTPFSYEVSWSKEESGSVNVGKLTMSIHTGTHIDAPFHFDNDGKKVLDLDVQVYVGPARIIDVSNLESIGKKELESFHLEGVERLLLRTSSHGKAEEFPEVIPHLRADIASFLSEKGIRLIGVDVPSVDPLDDKELAAHHQLFKHGIHILENVVLDHVADGDYELIALPLALTDADGSPVRAVIRPILEHHHHHH | soluble
2 | MSLNQLFCHPETITIKKAVYYDIAPIPLPTPFKDGTGGVRHASFFKGWMKIYDEDGFCGQGPAGPLMTDFFLPRMLNAPGKSNGEWMEYFWWEIRNFGYQSPYIPEMTNLDWLLLDLLANRAGLPLHRFLGADRDWACVYKGGGSVLLSDEALISDLQRFKDEGYKTTKFKIGGSGPDFSQDIRRLEKARQALGDGFGIAVDANQAWDAKTAFAFAKEAAPLGVAWLEEPVHAYDMDALRELRDLLDEAGIAMEIAMGESVRSYHTHVAYAEHGVDHLQPARLYCIAENMRVREYARRHGCRISTGGFTFQNAALGALYSEDELLEYHQPLNEVLVPYFSLVSEMKDGRFYLPDVPGLPVHLDFERLERDGLLRGIQFYYHKEGHHHHHH | soluble
3 | MGSDKIHHHHHHMNADEFVEAFNNAKDLTELELLAELGKSISDDLEGHEKGKVLGTLGNIYYALHRLKEAEEAYLEALNVYLKLSEEDEGFLPYVVGCLYNLGNLYQVSRKFAEAEKAYTDALKVLGDVRNDQRLAILTALGTMYAKLDMKEHAERCLVEAFEMAKVKGDARLLGTLLNNLAVVYQRGGRKREAAMLLKMALDALERVGEDLGIAAVLQNLLPYLDEDELRRVMERLESFGELPIDLKAKIAYFKARRAEEKGEDSAKHYMEAACLGFMAYRNFGFQSINFMHCLDKVIESDSELREDAVVLKKVILKYYYGSQKVEIDFDSRVGRMIKAVLEGDDIYEDGILEDTVRLIAEDLLKAGTKV | not soluble
4 | SVDDSKYQCVKLNDGHFMPVLGFGTYAPAEVPKSKALEAVKLAIEAGFHHIDSAHVYNNEEQVGLAIRSKIADGSVKREDIFYTSKLWSNSHRPELVRPALERSLKNLQLDYVDLYLIHFPVSVKPGEEVIPKDENGKILFDTVDLCATWEAMEKCKDAGLAKSIGVSNFNHRLLEMILNKPGLKYKPVCNQVECHPYFNQRKLLDFCKSKDIVLVAYSALGSHREEPWVDPNSPVLLEDPVLCALAKKHKRTPALIALRYQLQRGVVVLAKSYNEQRIRQNVQVFEFQLTSEEMKAIDGLNRNVRYLTLDIFAGPPNYPFSDEY | soluble
5 | MKLIITEDYQEMSRVAAHHLLGYMSKTRRVNLAITAGSTPKGMYEYLTTLVKGKPWYDNCYFYNFDEIPFRGKEGEGVTITNLRNLFFTPAGIKEENIQKLTIDNYREHDQKLAREGGLDLVVLGLGADGHFCGNLPNTTHFHEQTVEFPIQGEMVDIVAHGELGGDFSLVPDSYVTMGPKSIMAAKNLLIIVSGAGKAQALKNVLQGPVTEDVPASVLQLHPSLMVIADKAAAAELAFG | soluble
6 | MRKLLVSLVLLIFSENVTANRVEQVHLSLSGKMDEMVVTWLTQGPLPNVTPYVMYGLSKDALRWTAKATTTSWKDQGSHGYVRYTHRATMTKMVPGDTYYYKVGSSQDMSDVYHFHQPDPTQPLRAAIFGDLSVYKGAPSIKQLTDATHDNHFDVIIHIGDIAYDLHDDEGNRGDDYMNAVQPFAAYVPYMVFAGNHESDSHFNQIINRFTMPKNGVYDNNLFWSFDYGLTHFIGLNSEYYAEIHTKEAQAQYKWLQADLAKNKAQWTIVMFHRPWYCSTKDKGGCNDYLDMLSRKGNSELPGLEKLLFDHKVDMVLYGHKHTYERMWPIYDGTGYKSSDSGHIRNAKAPVYILTGSAGCHTHEGPSDAPQSFSATRLGQYGYTRLKVYNTTHLSTYFVDTSDKVGNFMDKFYLEKD | soluble
7 | MFSDELEKISWEETTKAIYSKTDADVRRALSKEHCDVNDFMALISPAAAPYLETMARLSRKYTMERFGKTISMFVPLYITNSCTNSCVYCGFNHNNPMKRTILTEEEMVNEYKAIKKLAPFENLLLVTGENPAKAGVDYIERALLLAKPYFANLQIEVMPLKAEEYERLTHAGLNGVICFQETYNKANYNIYHPRGMKSKFEWRVNGFDRMGQAGVHKIGMGVLIGLEEWRTDITMMAYHLRYLQKHYWKTKYSVNFPRMRPSENGGFQPNVVMNDRELAQVTFAMRIFDHDVDISYSTRESAAFRNHMATLGVTTMSAESKTEPGGYFTYPQALEQFHVSDERKAVEVDAALRSLGRIPVYKDWDTALTLPQC | soluble
8 | MENSHKRGRPDILHQALLVILTDPVIKGDIFIHTIQSKIIKVNPNMRPPKNYLRFIGLMEQLLKYGKIPINGDETLMEVTNLTLDNIVNRYDLILLSEKGEKINPEEICKLDEKWLLGIGAFPHGDFSDKILNLAKKIYSISGFPLETQQVLCRIFSACNS | soluble
9 | MANIYLNIEADSAQELKEILSQLATDNVVEVTQSLNTADKKATEEVEKAAKKEPAKKKKATAKKKEEVSTASTSDTEPSKTGEKVAPTDSETEEVSATADLHLGATKADVQEAMRKAMDKGKRPMIKTCFSRYNAEKLSDLKEEHYGKFITDLETLVGE | not soluble
10 | MASTSAATPLKNKRKFENGKKKPKTLKDEFGEKLDIKPVIVPPKPADEYDYDSSDEEDLRNTIGNIPIKWYDDEDHIGYDKFGEKIAKPAKKGEIETFLEKMEDPDYWRKVFDKQTGTDVKLTDEQIEKIHNIATGKYPTIGYNPYEPFLDIFSSQKEIHPIDNRPEPKSRFIPSKDEMRMVSRMVHAIKMGWAKGPRAKKEEHKSYDLWASEDALDNVTKSQLSRMRVHMPAPKVALPTHAESYNPPEEYIFDDEERKKWEEAEKEDRVLNFMPSKYDALRKVPQYDKFITERFERCLDLYLAPRQRKMRIHADPTDLLPDLPNPNDLRPFPTTLAFYMRGHTGQVRAITVEPERGELLASGGEDGTVRIWMIATGRCIKTFQMDGEVTSVSFSPVADRTLLAVAYEGKYVAILNTGCGDRLHVQQTEALLAETPTDAQEDGAVVTWRKSKEKLMLKMPNEVRQVTWHSKGDYFASVAIDDIAKSVYVHQLSKAKSQCPFQKRKGHVQAVTFHPTQARLFVATKIHVREYDLARCVLVKKLITGCKHISTMATDANGENLFLGGLDRRFCWMDLQMGNKPWKKLKHHTAAVRSVAYHKKYPLLATVSDDGTAMVYYARIYTDFVKDNELYPVKRLRAHEKTPNDLCMLHTTWHPTQPWLITAGADGTIALFTY | not soluble
11 | GPGSMRTCASTLSHLCAQGPLRGSMHVTLHALVRFCAHVASSLRSGQATLHPSLPLRFSHPLRLPSARFSHSTGVLSLALPVMQHTHIHTLTHTYSSIYRRFTARLRLSDSTCYTQGSTHTHTQSICFSIHSPLSLSLSETSALLGAPSSSSFSATSPAYRVRTASSCNRLPDGHKHFRKYIYIYIYIYWALSRISLGASADLPWNVRIHRVRMTATEYQKLIGERRLSPEEEENLVQRLYFRQMKLTEQREEERRAILERTRAQMQKHISKDEEGRLVSRMYDQQVERFANSKAERDRKLEEEMHKNDKKMDSSEIDDQVRRIYEEELKRSQARREELYSRYMPTAEAKKIGKKELKGCVERLSHVDWEKRDEELFKKYVYPYDPKTTKISRDDEQAMANRLSTTKGAG | not soluble
12 | RPLQGEATNLTDNTIFRIRQLKGTWNLLIIDSGKCEEYCQEKLYTLRQVRLAQHVDKDKVQRVWLINDDIRPDQETIDKFKGTRLVLANGKDLLKEFPAENKREDHIYVVDPMGNLMMRYPRNADPRKMVGDLKRLLKLSHLEH | not soluble
13 | SNAMIAKEFETFLLGQEETFLTPAKNLAVLIDTHNADHATLLLSQMTYTRVPVVTDEKQFVGTIGLRDIMAYQMEHDLSQEIMADTDIVHMTKTDVAVVSPDFTITEVLHKLVDESFLPVVDAEGIFQGIITRKSILKAVNALLHDFSKEYEIRCQ | soluble
14 | MSLLRKDATEERLTGRYFTPKDLASYIIDWVIQDNNINKILEPSCGNGVFLECLGERRLEDGRNITAIEIDEDVSFEASMQIDNSLRFNNCYDYQRALRNDGDIVNNGIVIINDDFYKVYEQELQGQRFQAIVGNPPYIRYQYLSEQQREEQSKILIRNNMRPNKLINAWVSFVVACAEILDGNGKMGLVIPAELLQVAYAEDLRRFIMRTFQRITIVTFRELVFPNVQQEVVLLLVEKEILHTREGHHHHHH | soluble
15 | MGSDKIHHHHHHMSINVLIVDDSLSACRVLSRHFLLLDVDKVEFCRDARSAIRTLSKYSDDYQIVVVDLHMPEVDGIEFLMRLSKMEFKGGIIIASGMESRIVEAASQLVEASKLRLLGALMKPVTTEQLRVCVERYRLMAFQGNGVRHKGLMSIDEIRRAINSNKIIPYYQAQVDIASGKIKGFEVLCRLQQGTRLQLITPDKFIDVAECNNALNSLTTKLLNNAIPEWALISQFESCKQCHLSINLTPKQLNQSGWHTRLMQYCEQNLLSPSRLTVEITENQVLDKQRQHSTISQLRMNRIGVAIDDFGTGYTNLSQLCTLPISELKLDRSLVHGIHKDPVSQTILKSMQAISGKLGIHLVAEGVEDIHDLNYLEQIEDISLQGYLICRPKPYSELVRWLKARERLVQA | not soluble
16 | KVVLISDVHVGSSQFLEDAWLDFLDFLKGESDSEEMREIASQVRYLVVAGDLVDGIGIYPDQEMELDILDVYEQYRKAADYFKEIPRHIRVIISPGNHDAVRQAEPQPALPERICADFPENVTFVGNPALVDLDGIRILIYHGRSIDDLVASVPGVSYHEPAGAVLEMLKRRHLAPTYGSRVSISPEKKDYFIIDPVPDIIHTGHVHTLGVQRYKNVLLVNSGTWQAQTEFQKRVNLVPVPARVPVVDLADFDVKILAFD | not soluble
17 | MGSDKIHHHHHHMTEIATIEKPAQHGATTRLIDIVFPGDTNHHGTLFGGTGLALMDRVAFIAATRFGRTPFVTASCERIDFRQPARIGHIVEFTARPVKAGRRSLTVEVEMVAETIIGRQQHTCTRGIFHMVAIPEGEDAASYVLPELLTEETPDPSDAVTMVEIVFPDQANSAGRMFGGEAIAYMTKAAFVAASRYCGKLVVLASSERIDFARAIEIGEIVEAQAHVERVGRSSMSIQTKLWSENLLTGERHITATGHFTMVAVDKDHRPATIRDPAEAFSLEKGGA | soluble
18 | MAISFDYSNALPFMQENELDYLSEFVKAAHHMLHERKGPGSDFLGWVDWPIRYDKNEFSRIKQAAERIRNHSDALVVIGIGGSYLGARAAIEALSHTFHNQMNDTTQIYFAGQNISSTYISHLLDVLEGKDLSINVISKSGTTTEPAIAFRIFRDYMEKKYGKEEARKRIYVTTDRTKGALKKLADQEGYETFVIPDNIGGRYSVLTAVGLLPIAVAGLNIDRMMEGAASAYHKYNNPDLLTNESYQYAAVRNILYRKGKAIELLVNYEPSLHYVSEWWKQLFGESEGKDQKGLFPASVDFTTDLHSMGQYVQEGRRNLIETVLHVKKPQIELTIQEDPENIDGLNFLAGKTLDEVNKKAFQGTLLAHVDGGVPNLIVELDEMNEYTFGEMVYFFEKACGISGHLLGVNPFDQPGVEAYKKNMFALLGKPGFEDEKAALMKRLSK | soluble
19 | MQVKSIKMRWESGGVNYCYLLSDSKNKKSWLIDPAEPPEVLPELTEDEKISVEAIVNTHHHYDHADGNADILKYLKEKNPTSKVEVIGGSKDCPKVTIIPENLKKLHLGDLEITCIRTPCHTRDSICYYVKDPTTDERCIFTGDTLFTAGCGRFFEGTGEEMDIALNNSILETVGRQNWSKTRVYPGHEYTSDNVKFVRKIYPQVGENKALDELEQFCSKHEVTAGRFTLKDEVEFNPFMRLEDPKVQKAAGDTNNSWDRAQIMDKLRAMKNRM | soluble

— the DeepSol protein solubility set
